Data from patent US20090068174A1, “THERAPEUTIC ALKALINE PROTEASE COMPOSITIONS AND USE IN FACILITATING THE TRANSPORT OF AGENTS ACROSS THE GASTROINTESTINAL MUCOSAL LINING” (Kansas University Medical Center Research Institute, Inc., priority 2007, published 2009).

How the values were obtained:
spontaneous colitis = experiment: Spontaneous colitis in C3H/HeJBir mice; type: in vivo, mouse; conditions: weeks 6-10 of life
Excerpt: This particular mouse strain develops a transmural Th1-, cytokine-dependent colitis similar to CD that begins at 3-6 wk of life and gradually wanes until it resolves at 3 months of age. T cells and Th1 cytokines (IL-112, IFN-γ and TNF-α) mediate the disease which is maintained by an ongoing reaction to microbial flora antigens.
C3H/HeJBir mice can be obtained at 5-6 wk of age from Jackson Labs. Mice can be divided into three groups, for example: Group 1 should receive no further treatment and may simply be monitored for clinical signs, including daily measurements of body weight and endpoint pathology. Group 2 should be administered alkaline protease in their drinking water at a dose of 10-25 mg/kg/week for one week. Group 3 should be administered alkaline protease in their drinking water (dose determined above) for two weeks. After 1 week (Group 2 and half of Group 1) or 2 weeks (Group 3 and half of Group 1), animals can be sacrificed and body weight changes and histopathological scores of inflammation and tissue damage (leukocyte infiltration, ulceration, abscesses and fibrosis), activated caspase-3 expression and TNF-α expression can be measured by methods known in the art.

TNF-α [1] = molecular target: T1, TNF-α (Mus musculus, UniProt P06804); experiment: Protease-treated TNF-α injected i.p. into mice, activated caspase-3 in intestine; type: in vivo; conditions: TNF-α treated with protease for 2 h, intestine 1 h later
T1 sequence (P06804 80-235 limits assumed): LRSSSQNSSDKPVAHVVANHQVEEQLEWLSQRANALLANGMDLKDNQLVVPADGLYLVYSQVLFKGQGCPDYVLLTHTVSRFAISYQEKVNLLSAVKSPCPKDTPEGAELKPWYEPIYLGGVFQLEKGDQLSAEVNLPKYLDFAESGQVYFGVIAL
Protocol: TNF-α was first treated either with PBS, AP or D for 2 h, the reaction mixtures were inactivated by the addition of FBS, and the cytokine-protease mixtures were injected i.p. into mice. (A) One hour later the mice were euthanized, samples of their intestines were collected and fixed, and tissue sections were analyzed by immunohistology for the expression of activated caspase-3. These are the results are shown in which data are expressed in two forms: (B) the frequency distributions of sections expressing different levels of activated caspase-3; and (C) the percentages of tissue sections in which 10% or more of the villi stained for activated caspase-3.
A series of experiments was performed in which the activation of caspase-3 within the intestine was measured. […] One hour later the mice were euthanized, samples of their intestines were collected and fixed, and tissue sections were analyzed by immunohistology for the expression of activated caspase-3 (FIG. 21-22). […]
Mice were injected i.p. with 5 ng of recombinant mouse TNF-α or protease-treated TNF-α, and 2 cm segments of their duodenums were collected 1 h later. […] The sections were first treated with rabbit antibody to activated (cleaved) mouse caspase-3, and bound antibody was detected using a Histostain-SP kit. […] At least 48 sections were analyzed in this fashion from each mouse.

mouse recombinant IFN-γ = molecular target: T2, mouse recombinant IFN-γ (Mus musculus, UniProt P01580); experiment: Cleavage of mouse IFN-γ (Western blotting); type: biochemical; conditions: 100 ng cytokine, 37° C. overnight, Western blot
T2 sequence (P01580 23-155): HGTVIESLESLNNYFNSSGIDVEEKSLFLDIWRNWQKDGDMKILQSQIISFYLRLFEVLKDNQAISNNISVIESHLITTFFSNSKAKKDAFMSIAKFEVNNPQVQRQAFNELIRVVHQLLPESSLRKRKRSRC
Protocol: Degradation of mouse recombinant TNF-α: (A) or IFN-γ (B) following treatment with: the protease powder prepared according to Example 1 (preparation), purified alkaline protease (AP); Pseudomonas elastase (E); and buffered-treated control (C). The cytokines (100 ng each) were incubated at 37° C. overnight with the indicated quantities (ng) of enzymes, and then analyzed by Western blotting for evidence of degradation. A scan of AP-treated mouse TNF-α (left-hand Western blot) showing the decreasing density of the top band as a function of alkaline protease concentration (C).
Because the anti-TNF-α used here was specific for an epitope located in the carboxyl terminus of the cytokine, the pattern of cleavage is most consistent with attack at the amino terminus of TNF-α (e.g., there is a loss of molecular mass without a loss of the epitope recognized by the antibody).

TNF-α [2] = molecular target: T1, TNF-α; experiment: Pretreatment of mice with protease before TNF-α challenge, activated caspase-3 in intestine; type: in vivo
Protocol: In this figure, various amounts of deutrolysin and alkaline protease were administered to mice 15 min prior to challenge with TNF-α. Intestinal tissues were again recovered 1 h later and the expression of activated caspase-3 was measured. […] (B) The ability of AP to provide protection against the apoptotic effects of TNF-α in vivo was limited in its duration. Thus, pretreatment of the mice for up to 30 min prior to TNF-α challenge prevented caspase-3 activation, whereas delaying cytokine challenge beyond 30 min diminished the protective effect of the protease.
A modification of this experiment was then performed by injecting various amounts of the proteases for 15 min prior to challenge with TNF-α (FIG. 22). Intestinal tissues were again recovered 1 h later and the expression of activated caspase-3 was measured. […]
Mice were injected i.p. with 5 ng of recombinant mouse TNF-α or protease-treated TNF-α, and 2 cm segments of their duodenums were collected 1 h later. […] The sections were first treated with rabbit antibody to activated (cleaved) mouse caspase-3, and bound antibody was detected using a Histostain-SP kit. For each mouse, tissues were scored by enumerating the number of sections in which less than 10%, 10-50%, or >50% of the intestinal villi expressed activated caspase-3. At least 48 sections were analyzed in this fashion from each mouse.

established IBD = experiment: Established IBD in the hapten model in SJL mice; type: in vivo, mouse
Protocol: SJL mice can be given TNBS by enema for the induction of colitis, and their body weights can be monitored every 3 days. When there has been a decrease in body mass by at least 15% (typically day 7), the animals can be given either four i.p. injections of 10 μg alkaline protease every 12 hours (Group 1) or administered alkaline protease in their drinking water at a concentration found above to decrease IBD parameters (Group 2). A control group can be challenged with TNBS, but would not receive protease (Group 3). Body weights can then be monitored daily, and at the end of one week, mice are euthanized and tissues taken for scoring the various histopathological and immunohistochemical parameters as known in the art.

B1: Alkaline Protease: Aspergillus oryzae alkaline protease (oryzin), SEQ ID NO: 2, purified from the protease powder of Example 1 (protein, listed as Aspergillus oryzae)
chain: MQSIKRTLLLLGAILPAVLGAPVQETRRAAEKLPGKYIVTFKPGIDEAKIQEHTTWATNIHQRSLERRGATGGDLPVGIERNYKINKFAAYAGSFDDATIEEIRKNEDVAYVEEDQIYYLDGLTTQKSAPWGLGSISHKGQQSTDYIYDTSAGEGTYAYVVDSGVNVDHEEFEGRASKAYNAAGGQHVDSIGHGTHVSGTIAGKTYGIAKKASILSVKVFQGESSSTSVILDGFNWAANDIVSKKRTSKAAINMSLGGGYSKAFNDAVENAFEQGVLSVVAAGNENSDAGQTSPASAPDAITVAAIQKSNNRASFSNFGKVVDVFAPGQDILSAWIGSSSATNTISGTSMATPHIVGLSLYLAALENLDGPAAVTKRIKELATKDWKDVKGSPNLLAYNGNA
Weight loss and pathological lesions (spontaneous colitis): can correct the weight loss and the pathological lesions
Ability of protease-treated TNF-α to activate caspase-3 in intestinal epithelial cells (TNF-α [1]): destroyed the ability of the cytokine to activate caspase-3
Cleavage of mouse IFN-γ (mouse recombinant IFN-γ): partial degrades mouse IFN-γ
Cleavage of mouse IFN-γ (mouse recombinant IFN-γ; listed as alkaline protease (AP)): evidenced the same substrate specificity
Pretreatment interval prior to TNF-α challenge that prevented caspase-3 activation (TNF-α [2]): up to 30 min
Effect of protease pretreatment on action of TNF-α in vivo (activated caspase-3) (TNF-α [2]; protease 1-10 μg injected 15 min prior to TNF-α challenge, tissues 1 h later): blocked the action of TNF-α in vivo
Effect on established IBD (established IBD): can reverse and/or lessen established IBD
